This note sets out measurements from patent US20260015399A1 (Boehringer Ingelheim, published 2026).

*1 amine or outer side, *2 acyl side, *3 side chain or, on linkers, in order; H or OH if unused. Side-chain parts run from the residue outwards. The star is where a group is joined. C18 diacid = O=C(O)CCCCCCCCCCCCCCCCC(=O)*; γGlu = O=C(O)[C@H](CCC(=O)[*:2])N[*:1]; Isovaleryl = CC(C)CC(=O)*; Ahx = NCCCCCC(=O)O

For orientation: Ki means the dissociation constant of the complex between target and ligand, obtained from inhibition or displacement. A lower Ki goes with a stronger hold on the target.

The experiment deals with T1, human NPY2 receptor (human, UniProt P49146 1-381).
T1 construct: whole, on cells; also called hNPY2-R; hNPY2R
T1 sequence (looked up): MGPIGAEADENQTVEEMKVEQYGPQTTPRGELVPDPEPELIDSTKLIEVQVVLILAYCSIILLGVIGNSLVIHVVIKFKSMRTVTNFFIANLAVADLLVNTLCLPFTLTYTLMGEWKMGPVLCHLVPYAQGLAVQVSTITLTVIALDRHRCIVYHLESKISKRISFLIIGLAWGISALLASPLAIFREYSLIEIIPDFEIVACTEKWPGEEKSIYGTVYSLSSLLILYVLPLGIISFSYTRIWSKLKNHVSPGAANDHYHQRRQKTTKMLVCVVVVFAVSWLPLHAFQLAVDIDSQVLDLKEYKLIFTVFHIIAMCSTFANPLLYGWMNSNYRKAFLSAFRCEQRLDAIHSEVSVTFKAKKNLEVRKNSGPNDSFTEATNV
The experiment can be described thus: RLB: displacement of 125I-PYY(1-36) from hNPY2R membranes. (Loss of bound radioactivity is the signal in a displacement assay; it reports binding, not function.)

B1: Compound 59 (peptide)
peptide: Isovaleryl-APAK([Ahx-γGlu-C18 diacid])PEEDASPEELQRYYVQLRHYYNWLTRQRY-NH2
SMILES: CC(C)CC(=O)N[C@@H](C)C(=O)N1CCC[C@H]1C(=O)N[C@@H](C)C(=O)N[C@@H](CCCCNC(=O)CCCCCNC(=O)CC[C@H](NC(=O)CCCCCCCCCCCCCCCCC(=O)O)C(=O)O)C(=O)N1CCC[C@H]1C(=O)N[C@@H](CCC(=O)O)C(=O)N[C@@H](CCC(=O)O)C(=O)N[C@@H](CC(=O)O)C(=O)N[C@@H](C)C(=O)N[C@@H](CO)C(=O)N1CCC[C@H]1C(=O)N[C@@H](CCC(=O)O)C(=O)N[C@@H](CCC(=O)O)C(=O)N[C@@H](CC(C)C)C(=O)N[C@@H](CCC(N)=O)C(=O)N[C@@H](CCCNC(=N)N)C(=O)N[C@@H](Cc1ccc(O)cc1)C(=O)N[C@@H](Cc1ccc(O)cc1)C(=O)N[C@H](C(=O)N[C@@H](CCC(N)=O)C(=O)N[C@@H](CC(C)C)C(=O)N[C@@H](CCCNC(=N)N)C(=O)N[C@@H](Cc1c[nH]cn1)C(=O)N[C@@H](Cc1ccc(O)cc1)C(=O)N[C@@H](Cc1ccc(O)cc1)C(=O)N[C@@H](CC(N)=O)C(=O)N[C@@H](Cc1c[nH]c2ccccc12)C(=O)N[C@@H](CC(C)C)C(=O)N[C@H](C(=O)N[C@@H](CCCNC(=N)N)C(=O)N[C@@H](CCC(N)=O)C(=O)N[C@@H](CCCNC(=N)N)C(=O)N[C@@H](Cc1ccc(O)cc1)C(N)=O)[C@@H](C)O)C(C)C
B1: the affinity, expressed as Ki, was 1.93 nM.

B2: Compound 68 (peptide)
peptide: Isovaleryl-APEK([Ahx-γGlu-C18 diacid])PEEDAEPEELQRYYVSLRHYYQWLTRQRY-NH2
SMILES: CC(C)CC(=O)N[C@@H](C)C(=O)N1CCC[C@H]1C(=O)N[C@@H](CCC(=O)O)C(=O)N[C@@H](CCCCNC(=O)CCCCCNC(=O)CC[C@H](NC(=O)CCCCCCCCCCCCCCCCC(=O)O)C(=O)O)C(=O)N1CCC[C@H]1C(=O)N[C@@H](CCC(=O)O)C(=O)N[C@@H](CCC(=O)O)C(=O)N[C@@H](CC(=O)O)C(=O)N[C@@H](C)C(=O)N[C@@H](CCC(=O)O)C(=O)N1CCC[C@H]1C(=O)N[C@@H](CCC(=O)O)C(=O)N[C@@H](CCC(=O)O)C(=O)N[C@@H](CC(C)C)C(=O)N[C@@H](CCC(N)=O)C(=O)N[C@@H](CCCNC(=N)N)C(=O)N[C@@H](Cc1ccc(O)cc1)C(=O)N[C@@H](Cc1ccc(O)cc1)C(=O)N[C@H](C(=O)N[C@@H](CO)C(=O)N[C@@H](CC(C)C)C(=O)N[C@@H](CCCNC(=N)N)C(=O)N[C@@H](Cc1c[nH]cn1)C(=O)N[C@@H](Cc1ccc(O)cc1)C(=O)N[C@@H](Cc1ccc(O)cc1)C(=O)N[C@@H](CCC(N)=O)C(=O)N[C@@H](Cc1c[nH]c2ccccc12)C(=O)N[C@@H](CC(C)C)C(=O)N[C@H](C(=O)N[C@@H](CCCNC(=N)N)C(=O)N[C@@H](CCC(N)=O)C(=O)N[C@@H](CCCNC(=N)N)C(=O)N[C@@H](Cc1ccc(O)cc1)C(N)=O)[C@@H](C)O)C(C)C
B2 yielded a Ki of 9.07 nM. This Ki is about 4.7-fold higher than that of the molecule before.

B3: Compound 60 (peptide)
peptide: Isovaleryl-APEK([Ahx-γGlu-C18 diacid])PEEDASPEELQRYYVSLRHYYQWLTRQRY-NH2
SMILES: CC(C)CC(=O)N[C@@H](C)C(=O)N1CCC[C@H]1C(=O)N[C@@H](CCC(=O)O)C(=O)N[C@@H](CCCCNC(=O)CCCCCNC(=O)CC[C@H](NC(=O)CCCCCCCCCCCCCCCCC(=O)O)C(=O)O)C(=O)N1CCC[C@H]1C(=O)N[C@@H](CCC(=O)O)C(=O)N[C@@H](CCC(=O)O)C(=O)N[C@@H](CC(=O)O)C(=O)N[C@@H](C)C(=O)N[C@@H](CO)C(=O)N1CCC[C@H]1C(=O)N[C@@H](CCC(=O)O)C(=O)N[C@@H](CCC(=O)O)C(=O)N[C@@H](CC(C)C)C(=O)N[C@@H](CCC(N)=O)C(=O)N[C@@H](CCCNC(=N)N)C(=O)N[C@@H](Cc1ccc(O)cc1)C(=O)N[C@@H](Cc1ccc(O)cc1)C(=O)N[C@H](C(=O)N[C@@H](CO)C(=O)N[C@@H](CC(C)C)C(=O)N[C@@H](CCCNC(=N)N)C(=O)N[C@@H](Cc1c[nH]cn1)C(=O)N[C@@H](Cc1ccc(O)cc1)C(=O)N[C@@H](Cc1ccc(O)cc1)C(=O)N[C@@H](CCC(N)=O)C(=O)N[C@@H](Cc1c[nH]c2ccccc12)C(=O)N[C@@H](CC(C)C)C(=O)N[C@H](C(=O)N[C@@H](CCCNC(=N)N)C(=O)N[C@@H](CCC(N)=O)C(=O)N[C@@H](CCCNC(=N)N)C(=O)N[C@@H](Cc1ccc(O)cc1)C(N)=O)[C@@H](C)O)C(C)C
For the molecule B3, the Ki was 6.04 nM.

B4: Compound 61 (peptide)
peptide: Isovaleryl-APEK([Ahx-γGlu-C18 diacid])PPADASPEEIQRYYVSLRHYYNWLTRQRY-NH2
SMILES: CC[C@H](C)[C@H](NC(=O)[C@H](CCC(=O)O)NC(=O)[C@H](CCC(=O)O)NC(=O)[C@@H]1CCCN1C(=O)[C@H](CO)NC(=O)[C@H](C)NC(=O)[C@H](CC(=O)O)NC(=O)[C@H](C)NC(=O)[C@@H]1CCCN1C(=O)[C@@H]1CCCN1C(=O)[C@H](CCCCNC(=O)CCCCCNC(=O)CC[C@H](NC(=O)CCCCCCCCCCCCCCCCC(=O)O)C(=O)O)NC(=O)[C@H](CCC(=O)O)NC(=O)[C@@H]1CCCN1C(=O)[C@H](C)NC(=O)CC(C)C)C(=O)N[C@@H](CCC(N)=O)C(=O)N[C@@H](CCCNC(=N)N)C(=O)N[C@@H](Cc1ccc(O)cc1)C(=O)N[C@@H](Cc1ccc(O)cc1)C(=O)N[C@H](C(=O)N[C@@H](CO)C(=O)N[C@@H](CC(C)C)C(=O)N[C@@H](CCCNC(=N)N)C(=O)N[C@@H](Cc1c[nH]cn1)C(=O)N[C@@H](Cc1ccc(O)cc1)C(=O)N[C@@H](Cc1ccc(O)cc1)C(=O)N[C@@H](CC(N)=O)C(=O)N[C@@H](Cc1c[nH]c2ccccc12)C(=O)N[C@@H](CC(C)C)C(=O)N[C@H](C(=O)N[C@@H](CCCNC(=N)N)C(=O)N[C@@H](CCC(N)=O)C(=O)N[C@@H](CCCNC(=N)N)C(=O)N[C@@H](Cc1ccc(O)cc1)C(N)=O)[C@@H](C)O)C(C)C
B4 gave a Ki of 0.41 nM.

B5: Compound 66 (peptide)
peptide: Isovaleryl-APEK([Ahx-γGlu-C18 diacid])PEEDATPEELQRYYISLRHYYNWLTRQRY-NH2
SMILES: CC[C@H](C)[C@H](NC(=O)[C@H](Cc1ccc(O)cc1)NC(=O)[C@H](Cc1ccc(O)cc1)NC(=O)[C@H](CCCNC(=N)N)NC(=O)[C@H](CCC(N)=O)NC(=O)[C@H](CC(C)C)NC(=O)[C@H](CCC(=O)O)NC(=O)[C@H](CCC(=O)O)NC(=O)[C@@H]1CCCN1C(=O)[C@@H](NC(=O)[C@H](C)NC(=O)[C@H](CC(=O)O)NC(=O)[C@H](CCC(=O)O)NC(=O)[C@H](CCC(=O)O)NC(=O)[C@@H]1CCCN1C(=O)[C@H](CCCCNC(=O)CCCCCNC(=O)CC[C@H](NC(=O)CCCCCCCCCCCCCCCCC(=O)O)C(=O)O)NC(=O)[C@H](CCC(=O)O)NC(=O)[C@@H]1CCCN1C(=O)[C@H](C)NC(=O)CC(C)C)[C@@H](C)O)C(=O)N[C@@H](CO)C(=O)N[C@@H](CC(C)C)C(=O)N[C@@H](CCCNC(=N)N)C(=O)N[C@@H](Cc1c[nH]cn1)C(=O)N[C@@H](Cc1ccc(O)cc1)C(=O)N[C@@H](Cc1ccc(O)cc1)C(=O)N[C@@H](CC(N)=O)C(=O)N[C@@H](Cc1c[nH]c2ccccc12)C(=O)N[C@@H](CC(C)C)C(=O)N[C@H](C(=O)N[C@@H](CCCNC(=N)N)C(=O)N[C@@H](CCC(N)=O)C(=O)N[C@@H](CCCNC(=N)N)C(=O)N[C@@H](Cc1ccc(O)cc1)C(N)=O)[C@@H](C)O
The molecule B5 returned a Ki of 2.33 nM.

B6: Compound 62 (peptide)
peptide: Isovaleryl-APAK([Ahx-γGlu-C18 diacid])PPEDASPEELQRYYVELRHYYNWLTRQRY-NH2
SMILES: CC(C)CC(=O)N[C@@H](C)C(=O)N1CCC[C@H]1C(=O)N[C@@H](C)C(=O)N[C@@H](CCCCNC(=O)CCCCCNC(=O)CC[C@H](NC(=O)CCCCCCCCCCCCCCCCC(=O)O)C(=O)O)C(=O)N1CCC[C@H]1C(=O)N1CCC[C@H]1C(=O)N[C@@H](CCC(=O)O)C(=O)N[C@@H](CC(=O)O)C(=O)N[C@@H](C)C(=O)N[C@@H](CO)C(=O)N1CCC[C@H]1C(=O)N[C@@H](CCC(=O)O)C(=O)N[C@@H](CCC(=O)O)C(=O)N[C@@H](CC(C)C)C(=O)N[C@@H](CCC(N)=O)C(=O)N[C@@H](CCCNC(=N)N)C(=O)N[C@@H](Cc1ccc(O)cc1)C(=O)N[C@@H](Cc1ccc(O)cc1)C(=O)N[C@H](C(=O)N[C@@H](CCC(=O)O)C(=O)N[C@@H](CC(C)C)C(=O)N[C@@H](CCCNC(=N)N)C(=O)N[C@@H](Cc1c[nH]cn1)C(=O)N[C@@H](Cc1ccc(O)cc1)C(=O)N[C@@H](Cc1ccc(O)cc1)C(=O)N[C@@H](CC(N)=O)C(=O)N[C@@H](Cc1c[nH]c2ccccc12)C(=O)N[C@@H](CC(C)C)C(=O)N[C@H](C(=O)N[C@@H](CCCNC(=N)N)C(=O)N[C@@H](CCC(N)=O)C(=O)N[C@@H](CCCNC(=N)N)C(=O)N[C@@H](Cc1ccc(O)cc1)C(N)=O)[C@@H](C)O)C(C)C
In turn, B6 showed a Ki of 1.44 nM. This Ki lies about 1.6-fold lower than the previous one.
